The results in this text go back to US20250206819A1 (MorphoSys, published 2025).

Where a chain is given by its changes, count along the chain named. Names and notes keep the numbering of the source. Values joined by “and” are separate entries in the source; they are usually repeats but may differ in a detail not shown here. Equal entries are not always repeated.

Experiment [1] concerns the target T1, human CD3 expressed on cells (Jurkat cells, human T cells) (human, UniProt P07766 22-207). The experiment is described as follows: cell-based or functional assay.
Experiment [2] deals with T1, human CD3 expressed on cells (Jurkat …). The experiment in a line: flow cytometry on Jurkat cells. On the procedure:
Target cells were mixed with the bispecific antibodies serially diluted (final concentration: 0.1 nM-200 nM) in D-PBS (Gibco) containing 3% fetal bovine serum (Sigma, #F7524) and incubated for 1 h on ice. Cells were washed 2 times in D-PBS (Gibco) containing 3% fetal bovine serum (Sigma, #F7524) and 0.02% […]. […] Antibody staining was measured using FACS Array (Beckton Dickinson) or IntelliCyt iQue flow cytometer and analyzed in FlowJo or ForeCyt (IntelliCyt) softwares, respectively. EC₅₀ values were calculated using 4-parameter non-linear regression analysis in Prism software (GraphPad Software Inc.).
For orientation: In flow cytometry, cells or beads pass a laser one at a time.

Experiment [3] deals with Mature human CD3e(22-118)_FLAG-chLys_Avi (human). The experiment is described as follows: BLI (Octet), bispecific captured, antigen as analyte. The procedure: (§1) Affinity determination by determining kinetic rate constants was performed on an Octet HTX (FortéBIO, Sartorius AG) instrument. […] The association phase was recorded for 180 s, followed by a dissociation phase of 300 s. After each cycle, the biosensors were regenerated two times with 10 mM Glycine HCl pH 1.7 to remove bound ligand/antibody complex, while maintaining the integrity of the capture surface. Between regeneration steps, biosensors were washed with assay buffer for 20 s. Sensorgrams were evaluated with Data Analysis Software v 10 (Octet/fortébio). All sensorgrams were fitted to a 1:1 binding model to determine kₒₙ and koff rate constants, which were used to calculate the KD value. For kinetic profiles deviating from the expected 1:1 binding, the sensorgrams were evaluated using a best approximation to the monovalent kinetics, and results marked with comment “heterogeneous binding”.
Sequence of Mature human CD3e(22-118)_FLAG-chLys_Avi (human) (chain, as listed by the source limits assumed): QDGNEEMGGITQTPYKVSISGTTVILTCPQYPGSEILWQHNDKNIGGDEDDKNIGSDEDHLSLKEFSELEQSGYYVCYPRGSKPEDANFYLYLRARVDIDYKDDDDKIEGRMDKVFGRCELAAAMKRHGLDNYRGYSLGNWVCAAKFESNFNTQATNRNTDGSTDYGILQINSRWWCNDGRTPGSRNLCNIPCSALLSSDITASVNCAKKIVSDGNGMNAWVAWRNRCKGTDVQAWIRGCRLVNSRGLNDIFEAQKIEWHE
In general terms: In BLI a coated tip is dipped into the sample, and binding shifts an interference pattern.

The target in experiment [4] is T1, human CD3 expressed on cells (Jurkat …). The experiment is described as follows: cell-based or functional assay. This is another data set of the same source.
For experiment [5], the target named is Mature human CD3e(22-118)_FLAG-chLys_Avi (human). The experiment is described as follows: BLI (Octet), bispecific captured, antigen as analyte; heterogenous binding. On the procedure: as §1
The target of experiment [6] is T1, human CD3 expressed on cells (Jurkat …). The experiment is described as follows: flow cytometry on human T cells, 167 nM antibody.
Experiment [7] deals with T2, Mature cynomolgus CD3e(22-49)_Fc2(K105-K330) (cynomolgus).
T2 construct: also called cyCD3e(22-49)-Fc2(K105-K330); recombinant cynomolgus CD3e (22-49)-Fc2(K105-K330)
The experiment is described as follows: ELISA, antigen coated on plate. On the procedure: (§2) Bispecific Fab₂-Fc-scFv antibodies according Example 1.2 were tested for their ability to bind to recombinant human and cynomolgus CD3epsilon antigen in ELISA. 5 nM of recombinant human CD3e (22-49)-Fc2 (K105-K330) (SEQ ID NO: 41) or 1 nM of recombinant cynomolgus CD3e (22-49)-Fc2(K105-K330) (SEQ ID NO: 42) were coated on Maxisorp plates (Nunc, #460518). Coated plates were blocked with 5% skim milk in PBS. Antibodies were serially diluted in PBS containing 0.5% skim milk and 0.5% Tween-20. […] EC₅₀ values were calculated using 4-parameter non-linear regression analysis in Prism software (GraphPad Software Inc.)
A general note: An ELISA detects its analyte on a solid surface through an enzyme-linked reagent.

The target in experiment [8] is T3, Mature human CD3e(22-49)_Fc2(K105-K330) (human).
T3 construct: also called hCD3e(22-49)-Fc2(K105-K330); recombinant human CD3e (22-49)-Fc2 (K105-K330)
The experiment is described as follows: ELISA, antigen coated on plate. On the procedure:
as §2

The target in experiment [9] is Mature human CD3e(22-118)_FLAG-chLys_Avi (human). The experiment is described as follows: BLI (Octet), bispecific captured, antigen as analyte. On the procedure:
Sensorgrams were evaluated with Data Analysis Software v 10 (Octet/fortébio). All sensorgrams were fitted to a 1:1 binding model to determine kₒₙ and koff rate constants, which were used to calculate the KD value. For kinetic profiles deviating from the expected 1:1 binding, the sensorgrams were evaluated using a best approximation to the monovalent kinetics, and results marked with comment “heterogeneous binding”.
This is another data set of the same source.

The target of experiment [10] is T1, human CD3 expressed on cells (Jurkat …). The experiment in a line: cell-based or functional assay. The source holds these as a separate data set.

The term EC50 denotes the concentration that produces a half-maximal response. For orientation: koff means the first-order rate constant of dissociation. Lower therefore signals a long-lived complex. A word on the kon: it is the rate constant with which the complex forms. Low values mean slow association, high ones fast association. One may read the Kd as the concentration at which binding is half-saturated.

T1 sequence (P07766 22-207): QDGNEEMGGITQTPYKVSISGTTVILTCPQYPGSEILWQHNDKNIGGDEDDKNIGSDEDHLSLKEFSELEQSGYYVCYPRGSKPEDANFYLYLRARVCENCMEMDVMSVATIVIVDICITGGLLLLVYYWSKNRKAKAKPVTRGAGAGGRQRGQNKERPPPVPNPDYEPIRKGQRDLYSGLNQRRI

B1: BissIg_18_opt_VH#1 (bispecific antibody, V domains shown)
VH 1: not shown
VL 1: not shown
VH 2: EVQLVESGGGLVQPGGSLRLSCAASGFSFGSHYMSWVRQAPGKGLEWVANINQIGYSSYYVESVKGRFTISRDNAKNSLYLQMNSLRAEDTAVYYCARGYSAEFAHRSGLDVWGQGTLVTVSS
VL 2: QSVLTQPPSASGTPGQRVTISCSGSSSNIGSNYVYWYQQLPGTAPKLLIYRNNQRPSGVPDRFSGSKSGTSASLAISGLRSEDEADYYCAAWDHHRSGAVFGGGTKLTVLGQ
notes: 1+1 IgG1 made by Fab-arm exchange; AEASS Fc; F405L in the CD3 half, K409R in the HER2 half
On to B1, for which, in experiment [1], the “Reporter gene assay MCF-7 EC50” value was found to be 0.33 nM and the “Reporter gene assay SKOV3 EC50” value worked out at 0.18 nM. The same molecule displayed an EC50 in [2] of 9 nM. In [3], this molecule yielded a dissociation rate constant (koff) of 0.0044 s⁻¹ and an association rate constant (kon) of 250000 M⁻¹ s⁻¹. In [4], the “T cell mediated killing MCF-7 [T cells] IC50 [pM]” value was determined as 210 pM and the “T cell mediated killing SKBR3 [PBMCs] IC50 [pM]” value came out at 15 pM. In [5], this molecule showed a Kd of 17 nM.

B2: BissIg_18_opt_VL (bispecific antibody, V domains shown)
VH 1: not shown
VL 1: not shown
VH 2: B1 VH 2 with S28T, G30S, H32Y, Y33W, N52K, I54D, Y56S, S57E, S58K, E62D
VL 2: B1 VL 2 with A91G, D93S, H94R, H95S, R96L, S97H
notes: as for B1
Regarding B2, in experiment [3], the koff was found to be 0.0041 s⁻¹ and the association rate constant (kon) stood at 150000 M⁻¹ s⁻¹. The dissociation constant (Kd) in [5] stood at 28 nM.

B3: Bisslg_08_#GP (bispecific antibody)
VH: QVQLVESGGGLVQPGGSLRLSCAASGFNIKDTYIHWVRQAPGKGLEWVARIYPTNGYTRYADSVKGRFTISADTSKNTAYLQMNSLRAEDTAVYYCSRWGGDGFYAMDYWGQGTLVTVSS
VL: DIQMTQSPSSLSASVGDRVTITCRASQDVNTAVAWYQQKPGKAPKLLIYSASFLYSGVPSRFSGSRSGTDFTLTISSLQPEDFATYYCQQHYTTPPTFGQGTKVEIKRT
scFv: QSVLTQPPSASGTPGQRVTISCSGSSSNIGSNYVYWYQQLPGTAPKLLIYRNNQRPSGVPDRFSGSKSGTSASLAISGLRSEDEADYYCAAWDHHRSGAVFGGGTKLTVLGQAQPAAPAPNAHEAPAPAQGSEVQLVESGGGLVQPGGSLRLSCAASGFTFSSYWMSWVRQAPGKGLEWVANIKQDGSEKYYVDSVKGRFTISRDNAKNSLYLQMNSLRAEDTAVYYCARGYSAEFAHRSGLDVWGQGTLVTVSS
notes: Format as Bisslg_08_#1: aglycosylated human IgG1, AEASS Fc, knob-into-hole; also called CD3-MABGP in the bispecific 2+1 Fab2-Fc-scFv format; grandparent antibody CD3-MABGP
As to B3, the “T cell binding @ antibody conc. of 167 nM [S/BG]” value in experiment [6] stood at 1.4 S/BG. The EC50 in experiment [7] came out at 369 nM; in experiment [8], 248 nM. The molecule further registered an equilibrium dissociation constant (Kd) in experiment [9] of 240 nM. In addition, in [10], the “RGA @ antibody conc. of 1 nM [S/BG] SKBR3 (Jurkat NFAT reporter gene assay)” value came to 1 S/BG.

B4: BissIg_18_opt_cc# (bispecific antibody, human IgG1, kappa, lambda)
heavy 1: not shown
light 1: not shown
heavy 2: EVQLVESGGGLVQPGGSLRLSCAASGFSFGSHYMSWVRQAPGKGLEWVANINQIGYSSYYVESVKGRFTISRDNAKNSLYLQMNSLRAEDTAVYYCARGYSAEFAHRSGLDVWGQGTLVTVSSASTKGPSVFPLAPSSKSTSGGTAALGCLVKDYFPEPVTVSWNSGALTSGVHTFPAVLQSSGLYSLSSVVTVPSSSLGTQTYICNVNHKPSNTKVDKRVEPKSCDKTHTCPPCPAPEAEGAPSVFLFPPKPKDTLMISRTPEVTCVVVDVSHEDPEVKFNWYVDGVEVHNAKTKPREEQYNSTYRVVSVLTVLHQDWLNGKEYKCKVSNKALPSSIEKTISKAKGQPREPQVYTLPPSREEMTKNQVSLTCLVKGFYPSDIAVEWESNGQPENNYKTTPPVLDSDGSFLLYSKLTVDKSRWQQGNVFSCSVMHEALHNHYTQKSLSLSPGK
light 2: not shown
B4: in experiment [1], the “Reporter gene assay MCF-7 EC50” value was less than 0.2 nM and the “Reporter gene assay SKOV3 EC50” value came out at 0.07 nM. The molecule also had an EC50 in [2] of 7 nM. In [3], this molecule came in with a koff of 0.0011 s⁻¹ and an on-rate (kon) of 1.2e+06 M⁻¹ s⁻¹. In [4], the “T cell mediated killing MCF-7 [T cells] IC50 [pM]” value is < 10 pM and 13.2 pM; the “T cell mediated killing SKBR3 [PBMCs] IC50 [pM]” value was 1.8 pM. In [5], this molecule had a Kd of 0.9 nM.
